The text below walks through data of PMC3291655, “LEDGF/p75-Independent HIV-1 Replication Demonstrates a Role for HRP-2 and Remains Sensitive to Inhibition by LEDGINs” (PLoS Pathogens, 2012).

The target in assay [1] is T1, MBP-LEDGF/p75(325-530), maltose binding protein fusion of the C-terminal end of LEDGF/p75 (human, UniProt O75475-1 325-530).
T1 construct: also called MBP-LEDGF_(325–530); LEDGF_(325–530); source: E. coli BL21(DE3), purified (amylose resin)
T1 sequence (looked up): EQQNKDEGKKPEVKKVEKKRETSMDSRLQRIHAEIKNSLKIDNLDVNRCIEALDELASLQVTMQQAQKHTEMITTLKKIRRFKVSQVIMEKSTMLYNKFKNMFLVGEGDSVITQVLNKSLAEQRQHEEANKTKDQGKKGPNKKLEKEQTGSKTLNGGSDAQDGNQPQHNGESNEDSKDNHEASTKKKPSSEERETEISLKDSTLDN
In words: AlphaScreen or HTRF; IN-His6 titrated (2-fold dilutions from 500 to 1.9 nM) against 10 nM MBP fusion; anti-MBP donor beads and Ni2+-chelate acceptor beads; 25 mM Tris-HCl pH 7.4, 150 mM NaCl, 1 mM MgCl2, 0.1% Tween-20, 0.1% BSA; 1 h at 4°C, then 1 h at RT with beads; apparent KD, one-site specific binding with ligand depletion. As to conditions: both partners purified. A general note: In Alpha technology, singlet oxygen from a donor bead excites a nearby acceptor bead.

For assay [2], the target named is T2, MBP-HRP-2(448-670), maltose binding protein fusion of the C-terminal part of Hepatoma-derived growth factor … (human, UniProt Q7Z4V5-2 448-670).
T2 construct: Hepatoma-derived growth factor related protein 2 (HRP-2), human, C-terminal part aa 448-670, which holds the IBD (aa 470-593); the range called the C-terminal end stops at 670, which fits the 670-residue isoform; amplified from p3xFlagHRP-2 and ligated into pMAL-c2E; source: E. coli, purified (amylose resin)
T2 sequence (looked up): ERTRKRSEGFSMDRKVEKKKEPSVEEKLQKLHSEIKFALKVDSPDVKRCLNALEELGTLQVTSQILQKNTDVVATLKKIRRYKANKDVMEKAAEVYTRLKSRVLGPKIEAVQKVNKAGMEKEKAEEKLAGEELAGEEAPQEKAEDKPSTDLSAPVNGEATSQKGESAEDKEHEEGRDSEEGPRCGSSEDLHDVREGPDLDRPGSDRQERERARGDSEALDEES
The assay is described as above. As to conditions: both partners purified.

B1: HIV-1 integrase with a C-terminal His6 tag (enzyme)
chain: FLDGIDKAQEEHEKYHSNWRAMASDFNLPPVVAKEIVASCDKCQLKGEAMHGQVDCSPGIWQLDCTHLEGKVILVAVHVASGYIEAEVIPAETGQETAYFLLKLAGRWPVKTVHTDNGSNFTSTTVKAACWWAGIKQEFGIPYNPQSQGVIESMNKELKKIIGQVRDQAEHLKTAVQMAVFIHNFKRKGGIGGYSAGERIVDIIATDIQTKELQKQITKIQNFRVYYRDSRDPVWKGPAKLLWKGEGAVVIQDNSDIKVVPRRKAKIIRDYGKQMAGDDCVASRQDED
As for B1, the Kd in assay [1] was 6.6 nM; in assay [2] it was 89.8 nM.
